Measurements taken from US12692303.

Target: IL-23-p40 (human) (UniProt P29460)
Experiment: Binding ELISA: IL-23-p40 coated at 2 ug/ml, antibody dilution series 0 to 5 ug/ml, goat anti-human IgG secondary antibody, OD450 (reference 650 nm). The sheet prints no unit on the x axis; ng/ml follows from the range in paragraph 77 (highest point at 5000)

IL-23-p40 (human), sequence (P29460 23-328 limits assumed): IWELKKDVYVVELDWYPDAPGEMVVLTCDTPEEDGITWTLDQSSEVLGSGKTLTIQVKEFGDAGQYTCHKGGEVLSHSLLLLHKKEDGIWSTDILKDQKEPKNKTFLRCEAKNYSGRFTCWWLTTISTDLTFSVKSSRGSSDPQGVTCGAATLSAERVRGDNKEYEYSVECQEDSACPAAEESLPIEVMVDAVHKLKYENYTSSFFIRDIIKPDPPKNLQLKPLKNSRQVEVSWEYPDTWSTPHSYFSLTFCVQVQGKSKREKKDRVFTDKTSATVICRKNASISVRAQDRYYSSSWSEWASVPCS

Question: How did the EC50 turn out when IL-23 p40 specific antibody QX001S was run?
Answer: 0.0179 µg/mL
